T1: FcγRIIa(R) (human, UniProt P12318 34-217)
T1 construct: extracellular domain; also called FcγRIIa R type; 2aR
T1 sequence: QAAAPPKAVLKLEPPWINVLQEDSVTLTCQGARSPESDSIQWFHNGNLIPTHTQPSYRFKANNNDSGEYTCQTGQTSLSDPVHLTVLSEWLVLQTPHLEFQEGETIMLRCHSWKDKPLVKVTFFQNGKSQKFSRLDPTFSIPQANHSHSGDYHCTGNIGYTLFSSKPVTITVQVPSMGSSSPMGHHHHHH

T2: FcγRIIa(H) (human, UniProt P12318 34-217)
T2 construct: extracellular domain; also called FcγRIIa H type; 2aH
T2 sequence: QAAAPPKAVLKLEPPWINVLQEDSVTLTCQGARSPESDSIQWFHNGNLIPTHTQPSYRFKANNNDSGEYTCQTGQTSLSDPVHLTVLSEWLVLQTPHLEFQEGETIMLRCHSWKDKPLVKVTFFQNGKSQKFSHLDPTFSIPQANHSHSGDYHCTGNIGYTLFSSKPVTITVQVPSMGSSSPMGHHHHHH

T3: FcγRIIb (human, UniProt P31994 43-217)
T3 construct: extracellular domain; also called 2b
T3 sequence: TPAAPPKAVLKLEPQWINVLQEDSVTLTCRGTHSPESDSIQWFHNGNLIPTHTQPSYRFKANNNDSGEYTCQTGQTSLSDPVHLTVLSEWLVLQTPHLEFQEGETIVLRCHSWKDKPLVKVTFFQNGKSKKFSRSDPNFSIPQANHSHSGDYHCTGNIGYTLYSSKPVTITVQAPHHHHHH


Legend:
Assay in all cases: SPR (Biacore), binding relative to GpH7-A5/GpH7-B3/GpL16-k0 x100;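 also: surface plasmon resonance at 25 °C, antibody captured on a sensor chip and soluble FcγR flowed over it in HBS-EP+ running buffer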
FcγRIa = biological target: T4, FcγRIa (human, UniProt P12314 16-292)
T4 construct: extracellular domain; also called 1a
T4 sequence (P12314 other isoform, or with tags, fused parts or gaps): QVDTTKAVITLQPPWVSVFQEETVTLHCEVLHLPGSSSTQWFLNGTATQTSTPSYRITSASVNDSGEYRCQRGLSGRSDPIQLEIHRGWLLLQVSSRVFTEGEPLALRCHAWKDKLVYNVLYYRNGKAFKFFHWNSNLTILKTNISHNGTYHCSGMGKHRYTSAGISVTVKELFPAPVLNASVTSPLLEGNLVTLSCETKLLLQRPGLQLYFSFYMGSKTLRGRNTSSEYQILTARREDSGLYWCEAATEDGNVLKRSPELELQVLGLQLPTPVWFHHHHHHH

FcγRIIa(R) = biological target: T1, FcγRIIa(R)
FcγRIIa(H) = biological target: T2, FcγRIIa(H)
FcγRIIb = biological target: T3, FcγRIIb

Row | He/Con 1a (FcγRIa) [%] | He/Con 2aR (FcγRIIa(R)) [%] | He/Con 2aH (FcγRIIa(H)) [%] | He/Con 2b (FcγRIIb) [%] | Binder
1 | 97.8 | 74.6 | 64.2 | 62.4 | GpH7-A5/GpH7-B3 variant L235_05P/GpL16-k0 (antibody, human IgG1, kappa, heterodimerized IgG1, one H chain mutated; also called He Ab) heavy 1: not shown heavy 2: not shown light: DIVMTQSPLSLPVTPGEPASISCQASESLVHSNRNTYLHWYLQKPGQSPQLLIYKVSNRFSGVPDRFSGSGSGTDFTLKISRVEAEDVGVYYCSQNTHVPPTFGQGTKVEIERTVAAPSVFIFPPSDEQLKSGTASVVCLLNNFYPREAKVQWKVDNALQSGNSQESVTEQDSKDSTYSLSSTLTLSKADYEKHKVYACEVTHQGLSSPVTKSFNRGEC
2 | 91.6 | 70.6 | 79.5 | 53.4 | GpH7-A5/GpH7-B3 variant L235_14T/GpL16-k0 (antibody, human IgG1, kappa, heterodimerized IgG1, one H chain mutated; also called He Ab) heavy 1: not shown heavy 2: not shown light: DIVMTQSPLSLPVTPGEPASISCQASESLVHSNRNTYLHWYLQKPGQSPQLLIYKVSNRFSGVPDRFSGSGSGTDFTLKISRVEAEDVGVYYCSQNTHVPPTFGQGTKVEIERTVAAPSVFIFPPSDEQLKSGTASVVCLLNNFYPREAKVQWKVDNALQSGNSQESVTEQDSKDSTYSLSSTLTLSKADYEKHKVYACEVTHQGLSSPVTKSFNRGEC
3 | 87.6 | 117 | 84.3 | 121 | GpH7-A5/GpH7-B3 variant L235_09D/GpL16-k0 (antibody, human IgG1, kappa, heterodimerized IgG1, one H chain mutated; also called He Ab) heavy 1: not shown heavy 2: not shown light: DIVMTQSPLSLPVTPGEPASISCQASESLVHSNRNTYLHWYLQKPGQSPQLLIYKVSNRFSGVPDRFSGSGSGTDFTLKISRVEAEDVGVYYCSQNTHVPPTFGQGTKVEIERTVAAPSVFIFPPSDEQLKSGTASVVCLLNNFYPREAKVQWKVDNALQSGNSQESVTEQDSKDSTYSLSSTLTLSKADYEKHKVYACEVTHQGLSSPVTKSFNRGEC
4 | 103 | 102 | 99.5 | 100 | GpH7-A5/GpH7-B3 variant L235_07I/GpL16-k0 (antibody, human IgG1, kappa, heterodimerized IgG1, one H chain mutated; also called He Ab) heavy 1: not shown heavy 2: not shown light: DIVMTQSPLSLPVTPGEPASISCQASESLVHSNRNTYLHWYLQKPGQSPQLLIYKVSNRFSGVPDRFSGSGSGTDFTLKISRVEAEDVGVYYCSQNTHVPPTFGQGTKVEIERTVAAPSVFIFPPSDEQLKSGTASVVCLLNNFYPREAKVQWKVDNALQSGNSQESVTEQDSKDSTYSLSSTLTLSKADYEKHKVYACEVTHQGLSSPVTKSFNRGEC
5 | 96.9 | 98.7 | 80 | 90.8 | GpH7-A5/GpH7-B3 variant L235_10E/GpL16-k0 (antibody, human IgG1, kappa, heterodimerized IgG1, one H chain mutated; also called He Ab) heavy 1: not shown heavy 2: not shown light: DIVMTQSPLSLPVTPGEPASISCQASESLVHSNRNTYLHWYLQKPGQSPQLLIYKVSNRFSGVPDRFSGSGSGTDFTLKISRVEAEDVGVYYCSQNTHVPPTFGQGTKVEIERTVAAPSVFIFPPSDEQLKSGTASVVCLLNNFYPREAKVQWKVDNALQSGNSQESVTEQDSKDSTYSLSSTLTLSKADYEKHKVYACEVTHQGLSSPVTKSFNRGEC
6 | 95.2 | 77.3 | 73.5 | 62.7 | GpH7-A5/GpH7-B3 variant L235_18N/GpL16-k0 (antibody, human IgG1, kappa, heterodimerized IgG1, one H chain mutated; also called He Ab) heavy 1: not shown heavy 2: not shown light: DIVMTQSPLSLPVTPGEPASISCQASESLVHSNRNTYLHWYLQKPGQSPQLLIYKVSNRFSGVPDRFSGSGSGTDFTLKISRVEAEDVGVYYCSQNTHVPPTFGQGTKVEIERTVAAPSVFIFPPSDEQLKSGTASVVCLLNNFYPREAKVQWKVDNALQSGNSQESVTEQDSKDSTYSLSSTLTLSKADYEKHKVYACEVTHQGLSSPVTKSFNRGEC
7 | 104 | 132 | 81.8 | 207 | GpH7-A5/GpH7-B3 variant P238_08L/GpL16-k0 (antibody, human IgG1, kappa, heterodimerized IgG1, one H chain mutated; also called He Ab) heavy 1: not shown heavy 2: not shown light: DIVMTQSPLSLPVTPGEPASISCQASESLVHSNRNTYLHWYLQKPGQSPQLLIYKVSNRFSGVPDRFSGSGSGTDFTLKISRVEAEDVGVYYCSQNTHVPPTFGQGTKVEIERTVAAPSVFIFPPSDEQLKSGTASVVCLLNNFYPREAKVQWKVDNALQSGNSQESVTEQDSKDSTYSLSSTLTLSKADYEKHKVYACEVTHQGLSSPVTKSFNRGEC
8 | 101 | 106 | 96.3 | 92.4 | GpH7-A5/GpH7-B3 variant L235_06M/GpL16-k0 (antibody, human IgG1, kappa, heterodimerized IgG1, one H chain mutated; also called He Ab) heavy 1: not shown heavy 2: not shown light: DIVMTQSPLSLPVTPGEPASISCQASESLVHSNRNTYLHWYLQKPGQSPQLLIYKVSNRFSGVPDRFSGSGSGTDFTLKISRVEAEDVGVYYCSQNTHVPPTFGQGTKVEIERTVAAPSVFIFPPSDEQLKSGTASVVCLLNNFYPREAKVQWKVDNALQSGNSQESVTEQDSKDSTYSLSSTLTLSKADYEKHKVYACEVTHQGLSSPVTKSFNRGEC
9 | 95.9 | 152 | 131 | 168 | GpH7-A5/GpH7-B3 variant L235_20W/GpL16-k0 (antibody, human IgG1, kappa, heterodimerized IgG1, one H chain mutated; also called He Ab) heavy 1: not shown heavy 2: not shown light: DIVMTQSPLSLPVTPGEPASISCQASESLVHSNRNTYLHWYLQKPGQSPQLLIYKVSNRFSGVPDRFSGSGSGTDFTLKISRVEAEDVGVYYCSQNTHVPPTFGQGTKVEIERTVAAPSVFIFPPSDEQLKSGTASVVCLLNNFYPREAKVQWKVDNALQSGNSQESVTEQDSKDSTYSLSSTLTLSKADYEKHKVYACEVTHQGLSSPVTKSFNRGEC
10 | 101 | 97.8 | 54.5 | 112 | GpH7-A5/GpH7-B3 variant P238_19Q/GpL16-k0 (antibody, human IgG1, kappa, heterodimerized IgG1, one H chain mutated; also called He Ab) heavy 1: not shown heavy 2: not shown light: DIVMTQSPLSLPVTPGEPASISCQASESLVHSNRNTYLHWYLQKPGQSPQLLIYKVSNRFSGVPDRFSGSGSGTDFTLKISRVEAEDVGVYYCSQNTHVPPTFGQGTKVEIERTVAAPSVFIFPPSDEQLKSGTASVVCLLNNFYPREAKVQWKVDNALQSGNSQESVTEQDSKDSTYSLSSTLTLSKADYEKHKVYACEVTHQGLSSPVTKSFNRGEC
11 | 99 | 140 | 84.7 | 224 | GpH7-A5/GpH7-B3 variant P238_09D/GpL16-k0 (antibody, human IgG1, kappa, heterodimerized IgG1, one H chain mutated; also called He Ab) heavy 1: not shown heavy 2: not shown light: DIVMTQSPLSLPVTPGEPASISCQASESLVHSNRNTYLHWYLQKPGQSPQLLIYKVSNRFSGVPDRFSGSGSGTDFTLKISRVEAEDVGVYYCSQNTHVPPTFGQGTKVEIERTVAAPSVFIFPPSDEQLKSGTASVVCLLNNFYPREAKVQWKVDNALQSGNSQESVTEQDSKDSTYSLSSTLTLSKADYEKHKVYACEVTHQGLSSPVTKSFNRGEC
12 | 93.5 | 75.9 | 73.5 | 55 | GpH7-A5/GpH7-B3 variant L235_13S/GpL16-k0 (antibody, human IgG1, kappa, heterodimerized IgG1, one H chain mutated; also called He Ab) heavy 1: not shown heavy 2: not shown light: DIVMTQSPLSLPVTPGEPASISCQASESLVHSNRNTYLHWYLQKPGQSPQLLIYKVSNRFSGVPDRFSGSGSGTDFTLKISRVEAEDVGVYYCSQNTHVPPTFGQGTKVEIERTVAAPSVFIFPPSDEQLKSGTASVVCLLNNFYPREAKVQWKVDNALQSGNSQESVTEQDSKDSTYSLSSTLTLSKADYEKHKVYACEVTHQGLSSPVTKSFNRGEC
13 | 100 | 150 | 135 | 170 | GpH7-A5/GpH7-B3 variant L235_15Y/GpL16-k0 (antibody, human IgG1, kappa, heterodimerized IgG1, one H chain mutated; also called He Ab) heavy 1: not shown heavy 2: not shown light: DIVMTQSPLSLPVTPGEPASISCQASESLVHSNRNTYLHWYLQKPGQSPQLLIYKVSNRFSGVPDRFSGSGSGTDFTLKISRVEAEDVGVYYCSQNTHVPPTFGQGTKVEIERTVAAPSVFIFPPSDEQLKSGTASVVCLLNNFYPREAKVQWKVDNALQSGNSQESVTEQDSKDSTYSLSSTLTLSKADYEKHKVYACEVTHQGLSSPVTKSFNRGEC
14 | 104 | 147 | 57.8 | 221 | GpH7-A5/GpH7-B3 variant P238_15Y/GpL16-k0 (antibody, human IgG1, kappa, heterodimerized IgG1, one H chain mutated; also called He Ab) heavy 1: not shown heavy 2: not shown light: DIVMTQSPLSLPVTPGEPASISCQASESLVHSNRNTYLHWYLQKPGQSPQLLIYKVSNRFSGVPDRFSGSGSGTDFTLKISRVEAEDVGVYYCSQNTHVPPTFGQGTKVEIERTVAAPSVFIFPPSDEQLKSGTASVVCLLNNFYPREAKVQWKVDNALQSGNSQESVTEQDSKDSTYSLSSTLTLSKADYEKHKVYACEVTHQGLSSPVTKSFNRGEC
15 | 105 | 142 | 74.6 | 235 | GpH7-A5/GpH7-B3 variant P238_10E/GpL16-k0 (antibody, human IgG1, kappa, heterodimerized IgG1, one H chain mutated; also called He Ab) heavy 1: not shown heavy 2: not shown light: DIVMTQSPLSLPVTPGEPASISCQASESLVHSNRNTYLHWYLQKPGQSPQLLIYKVSNRFSGVPDRFSGSGSGTDFTLKISRVEAEDVGVYYCSQNTHVPPTFGQGTKVEIERTVAAPSVFIFPPSDEQLKSGTASVVCLLNNFYPREAKVQWKVDNALQSGNSQESVTEQDSKDSTYSLSSTLTLSKADYEKHKVYACEVTHQGLSSPVTKSFNRGEC
16 | 92.7 | 110 | 99.8 | 87.8 | GpH7-A5/GpH7-B3 variant L235_16H/GpL16-k0 (antibody, human IgG1, kappa, heterodimerized IgG1, one H chain mutated; also called He Ab) heavy 1: not shown heavy 2: not shown light: DIVMTQSPLSLPVTPGEPASISCQASESLVHSNRNTYLHWYLQKPGQSPQLLIYKVSNRFSGVPDRFSGSGSGTDFTLKISRVEAEDVGVYYCSQNTHVPPTFGQGTKVEIERTVAAPSVFIFPPSDEQLKSGTASVVCLLNNFYPREAKVQWKVDNALQSGNSQESVTEQDSKDSTYSLSSTLTLSKADYEKHKVYACEVTHQGLSSPVTKSFNRGEC

Reference: US20260167699A1 (Chugai, published 2026)
